Measurements from article PMC5241874.

B1: αγ heterodimer of human NAD-IDH (IDH3) (Homo sapiens) (protein)
chain 1: TGGVQTVTLIPGDGIGPEISAAVMKIFDAAKAPIQWEERNVTAIQGPGGKWMIPSEAKESMDKNKMGLKGPLKTPIAAGHPSMNLLLRKTFDLYANVRPCVSIEGYKTPYTDVNIVTIRENTEGEYSGIEHVIVDGVVQSIKLITEGASKRIAEFAFEYARNNHRSNVTAVHKANIMRMSDGLFLQKCREVAESCKDIKFNEMYLDTVCLNMVQDPSQFDVLVMPNLYGDILSDLCAGLIGGLGVTPSGNIGANGVAIFESVHGTAPDIAGKDMANPTALLLSAVMMLRHMGLFDHAARIEAACFATIKDGKSLTKDLGGNAKCSDFTEEICRRVKDLD
chain 2: FSEQTIPPSAKYGGRHTVTMIPGDGIGPELMLHVKSVFRHACVPVDFEEVHVSSNADEEDIRNAIMAIRRNRVALKGNIETNHNLPPSHKSRNNILRTSLDLYANVIHCKSLPGVVTRHKDIDILIVRENTEGEYSSLEHESVAGVVESLKIITKAKSLRIAEYAFKLAQESGRKKVTAVHKANIMKLGDGLFLQCCREVAARYPQITFENMIVDNTTMQLVSRPQQFDVMVMPNLYGNIVNNVCAGLVGGPGLVAGANYGHVYAVFETATRNTGKSIANKNIANPTATLLASCMMLDHLKLHSYATSIRKAVLASMDNENMHTPDIGGQGTTSEAIQDVIRHIRVINGRAVEA
notes: alpha and gamma co-expressed in E. coli BL21(DE3) from pQlinkN; gamma C-terminal TEV-His6, His6 cleaved by TEV; 80 kDa heterodimer (dimer of heterodimers at high concentration)
B2: αγ heterodimer of human NAD-IDH (IDH3) (Homo sapiens; P50213:N202A) (protein)
chain 1: TGGVQTVTLIPGDGIGPEISAAVMKIFDAAKAPIQWEERNVTAIQGPGGKWMIPSEAKESMDKNKMGLKGPLKTPIAAGHPSMNLLLRKTFDLYANVRPCVSIEGYKTPYTDVNIVTIRENTEGEYSGIEHVIVDGVVQSIKLITEGASKRIAEFAFEYARNNHRSNVTAVHKAAIMRMSDGLFLQKCREVAESCKDIKFNEMYLDTVCLNMVQDPSQFDVLVMPNLYGDILSDLCAGLIGGLGVTPSGNIGANGVAIFESVHGTAPDIAGKDMANPTALLLSAVMMLRHMGLFDHAARIEAACFATIKDGKSLTKDLGGNAKCSDFTEEICRRVKDLD
chain 2: FSEQTIPPSAKYGGRHTVTMIPGDGIGPELMLHVKSVFRHACVPVDFEEVHVSSNADEEDIRNAIMAIRRNRVALKGNIETNHNLPPSHKSRNNILRTSLDLYANVIHCKSLPGVVTRHKDIDILIVRENTEGEYSSLEHESVAGVVESLKIITKAKSLRIAEYAFKLAQESGRKKVTAVHKANIMKLGDGLFLQCCREVAARYPQITFENMIVDNTTMQLVSRPQQFDVMVMPNLYGNIVNNVCAGLVGGPGLVAGANYGHVYAVFETATRNTGKSIANKNIANPTATLLASCMMLDHLKLHSYATSIRKAVLASMDNENMHTPDIGGQGTTSEAIQDVIRHIRVINGRAVEA
notes: as for B1
B3: αγ heterodimer of human NAD-IDH (IDH3) (Homo sapiens; P50213:K200A) (protein)
chain 1: TGGVQTVTLIPGDGIGPEISAAVMKIFDAAKAPIQWEERNVTAIQGPGGKWMIPSEAKESMDKNKMGLKGPLKTPIAAGHPSMNLLLRKTFDLYANVRPCVSIEGYKTPYTDVNIVTIRENTEGEYSGIEHVIVDGVVQSIKLITEGASKRIAEFAFEYARNNHRSNVTAVHAANIMRMSDGLFLQKCREVAESCKDIKFNEMYLDTVCLNMVQDPSQFDVLVMPNLYGDILSDLCAGLIGGLGVTPSGNIGANGVAIFESVHGTAPDIAGKDMANPTALLLSAVMMLRHMGLFDHAARIEAACFATIKDGKSLTKDLGGNAKCSDFTEEICRRVKDLD
chain 2: FSEQTIPPSAKYGGRHTVTMIPGDGIGPELMLHVKSVFRHACVPVDFEEVHVSSNADEEDIRNAIMAIRRNRVALKGNIETNHNLPPSHKSRNNILRTSLDLYANVIHCKSLPGVVTRHKDIDILIVRENTEGEYSSLEHESVAGVVESLKIITKAKSLRIAEYAFKLAQESGRKKVTAVHKANIMKLGDGLFLQCCREVAARYPQITFENMIVDNTTMQLVSRPQQFDVMVMPNLYGNIVNNVCAGLVGGPGLVAGANYGHVYAVFETATRNTGKSIANKNIANPTATLLASCMMLDHLKLHSYATSIRKAVLASMDNENMHTPDIGGQGTTSEAIQDVIRHIRVINGRAVEA
notes: as for B1

Substrate: O=C(O)CC(C(=O)O)C(O)C(=O)O
Experiment: purified protein
Format: biochemical, Homo sapiens
Settings: no activators, 2 mM Mn2+, 3.2 mM NAD, 33 mM Tris-acetate pH 7.4, 25 °C, Hill 2.0, racemic DL-ICT varied

Protein	K0.5 [mM]	kcat/Km [M⁻¹ s⁻¹]	K0.5 (Hill 1.2) [mM]	kcat/Km (Hill 1.2) [M⁻¹ s⁻¹]
B1	4.49 ± 0.15	2160 ± 30	–	–
B2	–	–	5.80 ± 0.84	290 ± 10
B3	–	–	6.38 ± 1.27	380 ± 30
